Laboratory results reported in patent US20170095421A1, “SYNTHETIC PLATELETS” (Maria I. C. Gyongyossy-Issa, priority 2006, published 2017).
Where no end group is shown, it is not given here. [ ]: non-standard residue; d: D form.

Key:
purified GPIb = purified GPIb (Homo sapiens, UniProt P07359); test: Overlapping vWf L-peptides on cellulose membrane probed by purified GPIb; type: binding; settings: detected by anti-GPIb coupled to HRP
Procedure: The vWf amino acid sequence was used to generate 10-mer L-amino acid overlapping peptides, shifted by two (2), according to the following pattern:
These peptides were synthesized and remained attached on the cellulose membrane. The membranes were probed by purified GPIb which was detected by anti-GPIb coupled to horseradish peroxidase (HRP). A number of positive spots were found whose sequences were derived from their positions on the membrane.
The sequences were analyzed in silico by (a) finding their positions in a 3D model of the parent protein (see FIG. 17) and then (b) relating that position to the potential vWf-GPIb interactive site.

[1] = Stability of the covalent linkage of peptide to hydrogel liposomes (Trp fluorescence); type: physicochemical; settings: hypothermic liquid storage, 4° C., under nitrogen, in the dark
Procedure: In brief: fluorescence emission at 348 nm (excitation 280 nm) of the single tryptophan of peptide D-Pep3 was used to analyze the stability of the peptide on the liposomes' surface. Fluorescence emission standard curves of trp-associated fluorescence were prepared using a range of concentrations from 1 μM to 20 μM free peptide D-Pep3 in the presence of 1 mM PEG2000 or HL liposomes (FIG. 34).
HL and PEG2000 liposomes were reacted with D-Pep3 peptide (as described according to Scheme 1) then washed and adjusted to a concentration of 1 mM lipid. The fluorescence emission was measured. The samples were stored under nitrogen, in the dark, at 4° C. for one month. The liposomes were again washed, resuspended to the same lipid concentration and the fluorescence emission was measured as before (FIG. 35). The attachment was stable for >1 months in hypothermic liquid storage.

platelets = test: P-HL interaction with platelets in plasma (flow cytometry, co-aggregates); type: cell-based; settings: 0.75 mM lipid, washed platelets, one hour at room temperature
Procedure: Red anti-Cd42-PE antibodies (7 μL) to detect platelets and 5 μL green anti-vWf-FITC antibodies at a 1/160 dilution were added to the tubes and incubated one more time for 30 min. The samples were diluted to 1 mL with formolsaline solution and analysed by flow cytometry. Singlet platelets (platelet gate), singlet liposomes and co-aggregates (P1 gate) were scored.
The post-stained aggregates were positive for CD42 (GPIb) and vWf. All the relevant controls were done, and the critical double stained examples (with anti-CD42-PE and anti-vWf-FITC) were as follows:
FIG. 37A: platelets alone, double stained with anti-CD42-PE and anti-vWF-FITC FIG. 37B: HL (control liposomes), double stained FIG. 37C: P-HL (D3-peptide hydrogel liposomes), double stained FIG. 37D: HL+platelets, (double stained) FIG. 37E: P-HL+platelets, (double stained)

vWf = target: T1, vWf (Homo sapiens, UniProt P04275); test: Capture of vWf from plasma cryoglobulin fraction; type: binding; settings: human cryoprecipitate 1/100, 1 hour at 37° C., anti-vWf-FITC
T1 construct: mixed with 5 μL human cryoprecipitate diluted 1/100 in Hepes Buffered Saline; from tissue; host or cells: human plasma cryoprecipitate
Procedure: Aliquots of 30 μL of HL or D-Pep3-HL liposomes were mixed with 5 μL human cryoprecipitate diluted 1/100 in Hepes Buffered Saline, (10 mM Hepes, 154 mM NaCl, pH 7.4.) The samples were diluted in buffer to achieve final lipid concentrations of 0.1, 0.25, 0.5, 0.75 and 1 mM, and incubated for 1 hour at 37° C. Anti-vWf-FITC antibodies were added (final dilution 1/128) and incubated for 40 minutes at RT. Samples were diluted with 350 μl of formal-saline and analyzed by flow cytometry.

purified vWf = target: T2, purified vWf (Homo sapiens, UniProt P04275); test: Random 15-mer D-peptide array probed with purified vWf; type: binding; settings: peptide on cellulose membrane, detection with anti-human vWf IgG-HRP
T2 construct: gift of Dr. F. A. Ofosu, McMaster University
Text: Random D-amino acid peptides (15 mer) were synthesized and probed with vWf to detect random sequences capable of binding vWf.
Random peptide arrays of 1120 peptides made of D-amino acids were synthesized on a cellulose membrane using an AutoSpot ASP 222 peptide synthesizer (ABiMED, Langenfeld, Germany). The resulting replicate libraries of 15-mer sequences were probed for vWf binding function by exposing the membranes to purified vWf (a gift of Dr. F. A. Ofosu, McMaster University, Hamilton ON, Canada) and blocking with milk, then identifying positive spots with a polyclonal goat anti-human vWf IgG coupled to horseradish peroxidase (Cedarlane, Canada). Immunochemical detection was done using the chemiluminescent substrates from the Amersham Pharmacia ECL kit; and the resulting spots were recorded on photographic film. Negative controls consisted of probing the membranes with the antibodies only, but without prior exposure of the membrane to purified vWf.
Peptides on random 15-mer peptide arrays that were built of D-amino acids were selected by their binding of vWf. Four sequences were identified: D-pep1-VSRQNGKQYWAIKEG (SEQ ID NO:1); D-pep2-WQNEGTHVLSRCYEC (SEQ ID NO:2); D-pep3-RSARMQVCWNAFKNR (SEQ ID NO:3); and D-pep4-DSCPRDWDNNFLFFE (SEQ ID NO:4). […] The identification of each vWf-peptide binding interface constitutes the results that follow.
Source—a random d-peptide array was probed with vWf and developed with […]. “Forward” D-amino acid peptides were tested, although L-amino acid versions of the peptides as well as the reverse (retro) of both L- and D-sequences will be also encompassed within the scope of these receptor molecules.

EVLKYTLFQI [L-black]
binding of GPIb (positive spots) (purified GPIb): +ve

SHAYIGLKDR [L-brown]
binding of GPIb (positive spots) (purified GPIb): +ve

D-Pep3-HL: D-Pep3 peptide covalently attached by Michael addition to hydrogel-liposomes ([dR][dS][dA][dR][dM][dQ][dV][dC][dW][dN][dA][dF][dK][dN][dR]; also: covalently attached to PEG hydrogel-coated liposome by Michael addition (Cys thiol or amines))
stability of the peptide attachment [1]: > 1 months
aggregate formation with platelets (platelets): form aggregates
binding (capture) of vWf (vWf): able to bind their specific ligand

RSARMQVCWNAFKNR (not fully specified) [D-pep3]
binding of vWf (purified vWf): binding to vWf

WQNEGTHVLSRCYEC (not fully specified; cysteine pairing not given here) [D-pep2]
binding of vWf (purified vWf): binding to vWf

VSRQNGKQYWAIKEG (not fully specified) [D-pep1]
binding of vWf (purified vWf): binding to vWf

DSCPRDWDNNFLFFE (not fully specified) [D-pep4]
binding of vWf (purified vWf): binding to vWf
